The nanobody polyreactivity screen of Harvey et al. (2022)

Assay: yeast display, Sf9 membrane polyspecificity reagent, FACS + sequencing; frameworks hold sequencing errors
Outline: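 A synthetic nanobody library was expressed on Saccharomyces cerevisiae BJ5465 by galactose induction for 36–48 hours. The library was stained for 1 hour at 4 °C with 10% biotinylated, detergent-solubilized Sf9 membrane reagent and enriched with streptavidin microbeads before FACS. Low and high (top ~1%) gates were set on anti-HA fluorescence for expression and streptavidin fluorescence for reagent binding, and each polyreactivity label reflects the gate of origin.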
In the case of “QDQLVESGGGLVQAGGSLRLSCAASGSIFGRYAMGWYRQAPGKERELVANITSGDSTNYADSVKGRFTISRDNAKNTVYLQMNSLKPEDTAVYYCAADTIYFYYYRHWYSKYYYWGQGTQVTVSS”, the “polyreactivity (PSR sort gate)” value is reported as “high polyreactivity”. In the case of “QDQLVESGGGLVQAGGSLRLSCAASGSIFGWYAMGWYRQAPGKERELVAAITWSGGSTYYADSVKGRFTISRDNAKNTVYLQMNSRKPEDTAVYYCAATYYGYVGRYDYWGQGTQVTVSS”, the “polyreactivity (PSR sort gate)” value is reported as “high polyreactivity”. For “QDQLVESGGGLVQAGGSLRLSCAASGSIFNVNTMGWYRQAPGKERGLVAAISYSGGSTYYADSVKGRFTISRDNAKNTVYLQMNSLKPEETAVYYCNVSPTTSGDGGGYDSWGQGTQVTVSS”, the “polyreactivity (PSR sort gate)” value was “low polyreactivity”. In the case of “QDQLVESGGGLVQAGGSLRLSCAASGSIFSVYVMGWYRQAPGKERELVATISSGGGTYYADSVKGRFTISRDNAKNTVYLQMNSLKPEDTAVYYCNADWDDWKGDYWGQGTQVTVSS”, the “polyreactivity (PSR sort gate)” value is reported as “low polyreactivity”. In the case of “QDQLVESGGGLVQAGGSLRLSCAASGSIFSYYAMGWYRQAPGKERELVAAIRRGGSTYYADSVKGRFTISRDNEKNSVYLQMNSLKPEDNAVYYCAASLGWRFYYWGQGTQVTVSS”, the “polyreactivity (PSR sort gate)” value is reported as “high polyreactivity”. For “QDQLVESGGGLVQAGGSLRLSCAASGSIFTRYTMGWYRQAPGKERELVATISSRGDGTYYADSVKGRFTISRDNAKNTVYLQMNSLKPEDTAVYYCAARYRRVHSGYGYWGQGTQVTVSS”, the “polyreactivity (PSR sort gate)” value was “high polyreactivity”. With “QDQLVESGGGLVQAGGSLRLSCAASGSIFVGYAMGWYRQAPGKETELVAAISTRGGSTYYADSVKGRFTISRDNAKNTVYLQMNSVKPEDTAVYYCAADYLDSTYGYVYGWDDYWGQGTQVTVSS” the “polyreactivity (PSR sort gate)” value was “low polyreactivity”. For “QDQLVESGGGLVQAGGSLRLSCAASGSIFYQNAMGWYRQAPGKERELVAAISIGGGSTYYADSVKGRFTISRDNAKNTVYLQMNSLKPEDTAVYYCATRRSVIYSYVPFDYWGQGTQVTVSS”, the “polyreactivity (PSR sort gate)” value was “low polyreactivity”. In the case of “QDQLVESGGGLVQAGGSLRLSCAASGSIIFFYVMGWYRQAPGKERELVAAITYSGGSTFYADSVKGRFTISRDNAKNSVYLQMNSLKPEDTAVNYCAAEYGQWTPLDPYNHWGQGTQVNVSS”, the “polyreactivity (PSR sort gate)” value is reported as “low polyreactivity”. In the case of “QDQLVESGGGLVQAGGSLRLSCAASGSNFLKYTMGWYRQAPGKERELVAAITSGGTTNYADSVKGRFTISRDNAKNTVYLQMNSLKPEDTAVYYCARDSYQLGLIRDPLEYDYWGQGTQVTVSS”, the “polyreactivity (PSR sort gate)” value is reported as “low polyreactivity”. With “QDQLVESGGGLVQAGGSLRLSCAASGSSFGYYAMGWYRQAPGKERELVASISWRGVSTYYADSVKGRFTISRDNAKNTVYIQMNSLKPEDTAVYYCATVYRWSFDYWGQGTQVTVSS” the “polyreactivity (PSR sort gate)” value was “low polyreactivity”. In the case of “QDQLVESGGGLVQAGGSLRLSCAASGSTFDSYDMGWYRQAPGKERELVAAISGGGGTYYADSVKGRFTISRDNAKNTVYLQMNSLKPEDTAVYYCAARTNGWPGMGYWGQGTQVTVSS”, the “polyreactivity (PSR sort gate)” value is reported as “high polyreactivity”. For “QDQLVESGGGLVQAGGSLRLSCAASGSTFGVNAMGWYRQAPGKERELVAIITSTTYSDSVKGRFTISRDNAKNTVYLQMNSLKPEDTAVYYSAADSLLVLFDYWGQGTQVTVSS”, the “polyreactivity (PSR sort gate)” value was “low polyreactivity”. With “QDQLVESGGGLVQAGGSLRLSCAASGSTFKVYAMGWYRQAPGKERELVAAISASDCSTYYADSVKGRFTISRDNAKNTVYLQMNILKAEDTAVYYCNAAYPEWYAYDYWGQGTQVTVSS” the “polyreactivity (PSR sort gate)” value was “low polyreactivity”. With “QDQLVESGGGLVQAGGSLRLSCAASGSTFNNNALGWYRQAPGKERELVAAISYTGGSTYYADSVKGRFTISRDNAKNSVYLHMNSLKPEDTAVYYCARRQARKFYYWGQGTQVTVSS” the “polyreactivity (PSR sort gate)” value was “high polyreactivity”. In the case of “QDQLVESGGGLVQAGGSLRLSCAASGSTFPDYAMGRYRQAPGKERELFAAISSGGSTNYADSVKGRFTISRDNAKNTVYLQMNSLKPEDTAVYYCAADVGAIYDKAVNGYWGQGTQVTVSS”, the “polyreactivity (PSR sort gate)” value is reported as “low polyreactivity”. With “QDQLVESGGGLVQAGGSLRLSCAASGSTFRHNAMGWYRQAPGKERELVATIRTSGGTTYYADSVKGRFTISRDNAKNTVYLHMNSLKPEDTAVYYCAAVSYLFLYQGYPIAYPMYYWGQGTQVTLSS” the “polyreactivity (PSR sort gate)” value was “low polyreactivity”. For “QDQLVESGGGLVQAGGSLRLSCAASGSTFRPYAMGWSRQAPGKERELVAAITTGGSTNYADSVKGRFTISRDNAKNTVYLQMNSLKPEDTAVYYCNADYDVLNWGYYDWGYDYWGHGTQVTVSS”, the “polyreactivity (PSR sort gate)” value was “low polyreactivity”. For “QDQLVESGGGLVQAGGSLRLSCAASGSTFSYNMGWYRQAPGKERELVAAISGSGGSTYADSVKGRFTISRDNAKNTVYLQMNSLKPEDTAVYYCATVRYWVHEYGYWGQGTQVTVSS”, the “polyreactivity (PSR sort gate)” value was “high polyreactivity”. With “QDQLVESGGGLVQAGGSLRLSCAASGSTFVSNAMVWYRQAPGKERELVAAISSSGGRTSYADSVKGRFTISRDNAKNTVYLQMNSLKPEDTAVYYCAARFKSVDYVQYYYWGQGTQVTVSS” the “polyreactivity (PSR sort gate)” value was “low polyreactivity”. With “QDQLVESGGGLVQAGGSLRLSCAASGSTIPISVRGWYRQAPGKERELVAAITYSGGSTYYADSVKGRFTISRDNAKNTVYLQMNSLKPEDTAVYYCAAGVYRWHYLYKYTQRRVEYWGQGTQVTVSS” the “polyreactivity (PSR sort gate)” value was “high polyreactivity”. For “QDQLVESGGGLVQAGGSLRLSCAASGSTLYAYAMGWYRQAPGKERELVAASRTGGSTYYADSLKGRFTISRDNAKNTVYLQMNSLKPEDTAVYYCAALYYHEYDYWGQGTQVTVSS”, the “polyreactivity (PSR sort gate)” value was “low polyreactivity”. With “QDQLVESGGGLVQAGGSLRLSCAASGSTMRWYAMGWYRQAHGKERELVARISWTTGSTYYADSVKGRFTISRDNAKNTVYLQMNSLKPEDTAVYYCAVASGQSFYWGQGTQVTVSS” the “polyreactivity (PSR sort gate)” value was “high polyreactivity”. In the case of “QDQLVESGGGLVQAGGSLRLSCAASGTFRRYAMGWYRKAPGKERELVAAISSGGGSTYYADSVKGRFTISRDNAKNTVYLQMNSLKPEDTAVYDCAAANSYTFRYGSWGQGTQVTVSS”, the “polyreactivity (PSR sort gate)” value is reported as “high polyreactivity”. In the case of “QDQLVESGGGLVQAGGSLRLSCAASGTTFQYNAMGWYRQAPGKERELVAAISGSGGSTYYADSVKGRFTISRDNAKNTVYLEMNSLKPEDTAVYYCARVGYRHGYYNYCGQGTQVTVSS”, the “polyreactivity (PSR sort gate)” value is reported as “high polyreactivity”. For “QDQLVESGGGLVQAGGSLRLSCAASGTTFYRYAMGWYRQAPGKERELVAAISSSGGYTYYADSVKGRFTISRDIAKNTVYLQMNSLKPEDTAVYYCNAAYRVRRFDYWGQGTQVTVSS”, the “polyreactivity (PSR sort gate)” value was “low polyreactivity”. In the case of “QDQLVESGGGLVQAGGSLRLSCAASGYTFPSYAMGWYRQAPGKEREFVAAIDSSGGSTNYADSVKGRFTISRDNAKNTVYLQMNSLKPEETAVYYCAREYSSGYWVRHLFYYWGQGTKVTVSS”, the “polyreactivity (PSR sort gate)” value is reported as “low polyreactivity”. With “QDQLVESGGGLVQAGGSLRLSCAASRSIFPLYAMGWYRQATGKEREMVAAISYSGGRTYYADSVKGRFTISRDNAKNTVYLQMNSLKPEDTAVYYCNTRQRVIDDYWGQGTQVSVSS” the “polyreactivity (PSR sort gate)” value was “high polyreactivity”. With “QDQLVESGGGLVQAGGSLRLSCAPSGSTFGDYDMGGYRPAPGKERELVAAISNGGSTYYAASVKGRFTISRDNAKNTVYLQRNSLKPEDTADFYCNADNVEIRSTYEYGRYLYGYWGQGTQVTVSS” the “polyreactivity (PSR sort gate)” value was “low polyreactivity”. For “QDQLVESGGGLVQAGGSLRLSCAPSGYFDLNALGWYRQAPGKERELVAANTDGGSTNYADSVKGRFTISRDNAKNTFYLQMNSLKPEDTAVYYCAADRGHTILHGGYWGQGTQVTVSS”, the “polyreactivity (PSR sort gate)” value was “low polyreactivity”. For “QDQLVESGGGLVQAGGSLRLSCASSGSTFPWYTMGWSRQAPGKERELVAAIDGSAGDTYYADSVKGRVTISRDNAKNTVYLQMNSLKPEDTAVYYCATRTWRWGYLHYDYWGQGTQVTVSS”, the “polyreactivity (PSR sort gate)” value was “low polyreactivity”. With “QDQLVESGGGLVQAGGSLRLSCDASGSIFEQNAMGWYRPAPGKERELVAAISSGSTNYADSVKGRFTISRDNAKNTVYLQMNSLKPEDTAVYYCAKRWRRRFVDVWSLYDYWGQGTQVTVSS” the “polyreactivity (PSR sort gate)” value was “low polyreactivity”. For “QDQLVESGGGLVQAGGSLRLSCPASGHTFAKYAMGWYRQAPGKERELVAAISSGGDTYYADSVKGRFTISRDNAKNTVYLQMNSLIPEDTAVYYCAATSICGSWSFWSPGEYRHYDYWGQGTQVTVSS”, the “polyreactivity (PSR sort gate)” value was “low polyreactivity”. With “QDQLVESGGGLVQAGGSLRLSCPASGRTFNYYAMGWYRQAPGKERELVAAISVSTTRTYYADSVKGRFTISRDNAKNTVYLQMNSLKPEDTAVYYCAAYRAGRFGYLGQGTQVTVSS” the “polyreactivity (PSR sort gate)” value was “high polyreactivity”. For “QDQLVESGGGLVQAGGSLRLSCSASGSTFIRNSKGWYRQATGKERELVAAITTDGSTDYADSVKGRFTISRDNAKNTVYLQMNSLKPEDTAVYYCNAEYRLDALSYDYWGQGTQVTVSS”, the “polyreactivity (PSR sort gate)” value was “low polyreactivity”. In the case of “QDQLVESGGGLVQAGGSLRLSGDASGSTFSKYVMGWYRQAPGKERELVAAISGGDRTYYADSVKGRFTISRDNAKNTVYLQMNSLKPEDTAVYFCAAEVLKTRWSYDYWGQGTQVTVSS”, the “polyreactivity (PSR sort gate)” value is reported as “high polyreactivity”. In the case of “QDQLVESGGGLVQAGGSLRLSRAASGLIFYSYAMGWYRQAPGKERELVAAISSGGGRTYYADSVKGRFTISRDNAKNTVDLQMNSLKPEDTAVYYCAAYGSAAQKYPYDRPYRYGYWGQGTQVTVSS”, the “polyreactivity (PSR sort gate)” value is reported as “high polyreactivity”. In the case of “QDQLVESGGGLVQAGGSLRLSSAASGRIFKRYAMGWYIQAPGKERELVAAITYNSGSTYYADSVKGRFTISRDNAKNTVYLQMNSLKPEDTAVFYCAAEKWSDQSPRGDYWGQGTQVTVSS”, the “polyreactivity (PSR sort gate)” value is reported as “low polyreactivity”. With “QDQLVESGGGLVQAGGSLRLTCAASGITFYRYAMGWYRQAPGKERELVAAITSGGRTNYADSVKGRFTISRDNAKNTVYLQMNSMKPEDTAVYYCGARLVRESEPLGYWGQGTQVTVSS” the “polyreactivity (PSR sort gate)” value was “high polyreactivity”. For “QDQLVESGGGLVQAGGSLRLTCAASGSIFTAYTMGWYRQAPVKERELVAAITERGGSTYYADSVKGRFTISRDNAKNTFYLQMNRMKPEDTAVYYCAASTLKDIYLWFRVDYWGQGTQVTLSS”, the “polyreactivity (PSR sort gate)” value was “low polyreactivity”. In the case of “QDQLVESGGGLVQAGGSLRLTSAASGRIFTIYAMGWYRQPPGKDRELVAAISDRGTRTYYADSVKGRFTISRDIAKNTVYLQMNSLKPEDTAVNYCSTDALYTYGYDYWGQGTQVTVSS”, the “polyreactivity (PSR sort gate)” value is reported as “low polyreactivity”.
